{"source": "paper PMC3690595", "about": "(Biochemistry, 2013)", "proteins": {"B1": {"name": "βB1-crystallin (natural protein, mouse (endogenous in mouse lens), UniProt Q9WVJ5 1-250, looked up)", "chain": "MSQAAKASATTAVNPGPDGKGKGAPSTGPAPAPGPTPVPASVPRPAAKVGDLPPGSYRLIVFEQENFQGRRVEFSGECLNLGDRGFDRVRSLIVVSGPWVAFEQSAFRGEMFVLEKGEYPRWDTWTSSYRSDRLMSFRPIRMDSQEHKICLFEGANFKGNTMEIQEDDVPSLWVYGFCDRVGSITVSGGTWVGYQYPGYRGYQYLLEPGDFRHWNEWGAFQPQMQAVRRLRDRQWHQEGCFPVLTAEPPK"}}, "molecular_target": "the molecule itself", "assay": "2D-DIGE with tandem mass spectrometry of picked spots"}
{"protein": "B1", "values": [{"measurement": "stoichiometry N", "result": 2}]}
